The values that follow come from article PMC13011424.

Experiment [1] concerns the target BG505 SOSIP.v4.1 Env trimer produced in STT3A-KO HEK293T cells (HIV-1 strain BG505 (clade A)). Put plainly: native gel or EMSA. On the technique in general: Mobility shift assays separate free from complexed probe on a gel.
The target is the same in experiment [2]. Put plainly: SEC; SEC of Ni-NTA-purified Env on a Superdex 200 10/300 GL column; trimer, dimer and monomer peaks. A general note: SEC sorts molecules by how far they enter the pores of the column.
The target in experiment [3] is BG505 SOSIP.v4.1 Env trimer produced in STT3B-KO HEK293T cells (HIV-1 strain BG505 (clade A)). Put plainly: native gel or EMSA.
The target is the same in experiment [4]. Put plainly: SEC; SEC of Ni-NTA-purified Env on a Superdex 200 10/300 GL column; trimer, dimer and monomer peaks.
Experiment [5] has as its target BG505 SOSIP.v4.1 Env trimer produced in wild-type (WT) HEK293T cells (HIV-1 strain BG505 (clade A)). Put plainly: native gel or EMSA.
Experiment [6] has the same target. Put plainly: SEC; SEC of Ni-NTA-purified Env on a Superdex 200 10/300 GL column; trimer, dimer and monomer peaks.

Regarding “BG505 SOSIP.v4.1 Env trimer produced in STT3A-KO HEK293T cells (complex)”, the stoichiometry N in experiment [1] and in experiment [2] was 3 each time.
Take “BG505 SOSIP.v4.1 Env trimer produced in STT3B-KO HEK293T cells (complex)”: the stoichiometry N in experiment [3] and in experiment [4] was 3 throughout.
“BG505 SOSIP.v4.1 Env trimer produced in wild-type (WT) HEK293T cells (complex)”: the stoichiometry N in experiment [5] and in experiment [6] was 3 in each case.
